Tests used:
Settings in all cases: protein: recombinant; tags: N-terminal His; label: 5'-32P on top strand
CUX1 CR3HD = target: T1, CUX1 CR3HD (UniProt P39880 1117-1303); assay: EMSA; complex co-migrates with that of OGG1; EMSA: 50 nM bacterially purified protein, 60 ng poly(dI-dC); buffer, salt, pH and temperature by reference to earlier work (not in material)
T1 sequence: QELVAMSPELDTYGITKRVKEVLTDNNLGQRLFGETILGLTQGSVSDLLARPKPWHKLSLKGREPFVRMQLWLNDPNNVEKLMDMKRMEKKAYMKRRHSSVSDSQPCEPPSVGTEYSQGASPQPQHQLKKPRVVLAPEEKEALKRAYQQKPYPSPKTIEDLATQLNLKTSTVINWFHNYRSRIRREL

CUX1 CR2CR3HD = target: T2, CUX1 CR2CR3HD (UniProt P39880 934-1303); assay: EMSA; EMSA: 50 nM bacterially purified protein, 60 ng poly(dI-dC); buffer, salt, pH and temperature by reference to earlier work (not in material)
T2 sequence: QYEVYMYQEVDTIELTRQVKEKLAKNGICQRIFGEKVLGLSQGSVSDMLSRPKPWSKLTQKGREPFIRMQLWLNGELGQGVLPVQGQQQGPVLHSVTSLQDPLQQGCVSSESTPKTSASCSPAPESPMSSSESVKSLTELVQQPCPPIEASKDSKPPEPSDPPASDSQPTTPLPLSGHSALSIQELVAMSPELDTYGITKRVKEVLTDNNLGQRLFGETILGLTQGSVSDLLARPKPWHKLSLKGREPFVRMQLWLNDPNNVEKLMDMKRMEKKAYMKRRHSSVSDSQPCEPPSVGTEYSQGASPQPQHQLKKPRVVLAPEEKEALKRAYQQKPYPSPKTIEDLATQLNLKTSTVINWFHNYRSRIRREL

CUX1 CR1CR2 = target: T3, CUX1 CR1CR2 (UniProt P39880 542-1021); assay: as above
T3 sequence: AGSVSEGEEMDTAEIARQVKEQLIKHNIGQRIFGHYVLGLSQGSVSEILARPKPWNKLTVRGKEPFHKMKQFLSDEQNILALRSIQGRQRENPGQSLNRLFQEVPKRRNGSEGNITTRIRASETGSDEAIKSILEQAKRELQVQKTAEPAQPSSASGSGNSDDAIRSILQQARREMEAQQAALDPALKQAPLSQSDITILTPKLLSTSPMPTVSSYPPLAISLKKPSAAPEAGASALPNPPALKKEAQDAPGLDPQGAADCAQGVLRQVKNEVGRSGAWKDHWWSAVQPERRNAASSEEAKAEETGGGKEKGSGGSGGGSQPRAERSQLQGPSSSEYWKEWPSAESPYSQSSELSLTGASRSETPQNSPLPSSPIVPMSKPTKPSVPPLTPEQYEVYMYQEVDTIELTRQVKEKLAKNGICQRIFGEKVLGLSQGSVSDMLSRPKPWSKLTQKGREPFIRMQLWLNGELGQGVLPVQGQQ

Measured: binding result

B1: Probe A, 8-oxoG (dsDNA)
DNA 1: CCGGTGCATGACACTGTGACCTATCCTCAGCG
DNA 2: CGCTGAGGATAGGTCACAGTGTCATGCACCGG
modifications: 8-oxoG at position X of top strand
binds: all assays above

Source: publication PMC4414141, “The function of cux1 in oxidative dna damage repair is needed to prevent premature senescence of mouse embryo fibroblasts”
